Measurements reported in the supplement of paper PMC10567573.

B1: ANKRD17 (parent)
chain: EVLRRLTSSVSCALDEAAAALTRM
B2: PSD2 (parent)
chain: LTHFSRRYCQCNPDDSTSEDGIHT

Variants of: B1
Assay: protein stability index of a GFP-peptide fusion (GPS, HEK-293T) (PSI 1-6); higher = more stable
Conditions: c terminus: a fixed tail appended
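Also: lentivirally expressed fusions sorted by FACS into six bins by GFP to DsRed ratio, PSI derived from sequencing read proportions per bin multiplied by bin number.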

Protein stability index of substitutions, site by site:
R5: G 2.1 | L 1.59 | K 4.55
A13: Y 1.66 | W 2.07 | Q 1.59 | V 1.16 | R 2.06 | I 2.26 | N 1.69 | T 2.38
R23: M 1.59 | V 1.02 | G 2.35 | F 4.05 | S 1.93 | Q 1.74 | N 1.35 | I 1.92 | W 3.5 | D 2.8
M24: L 2.81 | H 2.49 | Y 1.43 | S 2.42 | N 1.65 | I 2.08
A18: L 1.68 | M 2.25 | R 2.43 | N 1.8 | K 2.92 | G 1.85 | T 2.27 | I 2.33 | E 1.24 | H 1.68
L3: S 2.98 | M 1.41 | I 1.23 | R 2.17 | D 3.35 | G 3.68 | W 1.4
E16: F 3.12 | A 2.32 | Y 2.43 | V 1.6 | S 2.96 | H 1.8 | D 1.72 | K 1.54 | R 2.09
A20: W 2.48 | Y 3.13 | L 1.45 | M 2.28 | E 3.31 | I 2.52 | C 2.73 | D 1.65 | H 1.52 | R 2.64 | F 1.65 | N 3.01 | Q 3.08
R4: F 1.03 | E 1.42 | P 2.15 | T 2.1 | C 1.74 | Q 1.57 | W 1.07 | S 1.05
A19: F 3.41 | E 2.12 | Y 2.92 | D 1.83 | V 2.99 | K 2.6 | P 2.25 | I 1.88 | G 2.3 | N 2.55
D15: P 2.37 | N 3.18 | G 1.26 | C 1.99
V2: Q 2.56 | P 2.43 | L 2.35 | Y 2.08 | W 1.69 | A 2.96 | M 2.56 | I 2.4 | K 2.33 | D 2.77 | E 2.21
A17: T 2.13 | F 2.03 | I 2.26 | E 2.24 | V 2.32
T7: K 3.26 | G 2.27 | W 1.98 | P 2.52 | C 2.05 | F 1.66 | L 2.95 | V 3 | Q 2.6 | M 2.05
E1: F 1.73 | R 3.12 | T 2.08 | G 2.73 | P 2.48 | Y 2.22 | K 2.28 | L 1.8 | S 2.2 | I 1.89 | H 2.67 | V 2.42
S9: E 1.47 | R 2.69 | W 2.63 | P 1.94 | M 2.49 | I 1.97 | N 1.81 | G 1.64
L14: I 2.22 | S 2.72 | D 1.94 | W 1.81 | H 2.13 | N 2.11 | A 2.23 | V 1.77 | T 2.77 | C 2.2 | R 1.57 | P 1.93
L21: R 5.02 | D 1.53 | M 1.5 | I 1.93 | C 1.18 | N 3.47
C12: T 2.97 | Q 2.41 | V 2.48 | A 3.05 | E 3 | I 1.71 | G 3.18 | M 1.74 | Y 1.65 | N 3.93 | S 2.69 | L 2.75 | K 2.73
L6: Q 2.95 | F 1.9 | A 2.11 | K 2.17 | G 1.42 | M 1.76 | T 2.32 | H 1.66 | N 2.07 | I 1.67
V10: S 1.83 | T 1.3 | C 1.98 | Y 1.65 | L 2.21 | P 1.29 | H 1.74 | K 2.15 | N 1.94 | G 1.1
S11: I 2.1 | V 1.35 | N 2.65 | Q 1.18 | M 2.22 | Y 2.26 | E 1.92
S8: N 2.49 | C 2.81 | D 2.25 | G 1.52 | V 2.27 | T 3 | Y 1.99 | K 2.39 | M 2.13 | Q 1.41 | R 2.21 | W 3.21 | A 1.68
T22: D 2.22 | K 1.86 | Y 1.85 | W 1.46 | R 1.31 | M 2.39 | I 2.36 | P 2.33 | N 1.93 | V 1.24 | E 2.06 | A 1.94

Variants of: B2
Assay: as above
Conditions: c terminus: a fixed tail appended

Protein stability index, by site and new letter:
R6: L 3.3 | T 3.78 | V 3.08 | D 4.93 | F 2.33 | Y 2.74 | S 4.02 | I 2.75 | W 2.95 | Q 3.49 | H 3.93 | C 2.8 | E 4.83 | N 4.12 | A 4.22 | P 3.9 | K 3.21 | M 3.29 | G 4.2
F4: M 3.49 | A 4.42 | D 3.57 | I 3.17 | R 3.33 | Y 2.85 | L 3.5 | W 3.31 | G 4.57 | H 4.51 | E 4.55 | P 4.18 | S 3.61 | Q 3.73 | N 4.51 | V 3.16 | T 4.07 | C 3.38
R7: D 4.69 | E 4.43 | C 3.15 | A 3.3 | F 3.26
S5: I 2.34 | K 2.57 | E 3.97 | Q 4.35 | G 3.78 | P 3.4 | W 1.94 | D 4.38 | Y 2.27 | F 2.18 | H 3.36 | M 2.89 | T 3.42 | R 2.53 | N 3.69 | V 2.67 | A 3.43 | L 3.06 | C 2.71
H3: S 3.29 | L 2.96 | Q 3.47 | P 3.03 | N 3.55 | M 2.62 | C 2.73 | K 3.52 | I 2.83 | G 2.92 | A 3.54 | E 3.61 | R 3.62 | F 2.16 | Y 3.13 | V 3.69 | W 2.16 | T 3.28 | D 4.38
L1: C 3.89 | W 3.36 | V 3.77 | E 3.17 | F 2.72 | D 4.21 | Y 1.62 | T 3.75 | H 3.66 | I 3.69 | P 3.96 | S 3.7 | G 3.79 | N 3.75 | M 3.16 | A 3.56 | Q 3.53 | K 3.49
T2: P 3.26 | F 2.63 | V 2.24 | Y 2.79 | C 2.51 | E 4.41 | H 3.9 | A 3.18 | D 4.29 | S 3.23 | L 2.41 | Q 2.87 | G 3.67 | N 3.74 | K 2.47 | W 2.28 | M 2.86 | R 2.63 | I 3.01
